# From the DeepSol protein solubility set
# Assay: soluble on expression in E. coli; label from the status in PepcDB or PDB records
row,Sequence,soluble on expression in E. coli
1,MRYALAACLLLLAASSFVDAKKKKIADDELGELLDNIDADEEKKSVEPAKNPCEDHQCGWGKECVVGKKGEPTCECISKCPELDGDPMDKVCANNNQTFTSLCDLYRERCLCKRKSKECSKAFNAKVHLEYLGECKKLDECTEEHMAQFPERMADWLFQVMKELKKRRELHKLEWEELLSEAENDDEKKHVYPVIWKFCELDTKPHDKSVSHHELIPITAPVIPMESCIKPFLEGCDANNDGNISIKEWGKCLGLKEGEIQERC,not soluble
2,MCGGRGTRLDTKVEKPLFRIGGVPMVGRVVGALEDSAVERIIAATSPNAPETQSCLDVPCIETPGEGYVADLNAALNDDRLSQPVLTVAADLPLLDGEIVDRVLDEHNGGSLTVLVPASLKRALGVSDDTTFDNGGREVAPTGVNVVSDGPDDAWLTRDRRVAVNVNTLADARVAEQWLLEHHHHHH,not soluble
3,GMTQTTPQPDPSRLRDELVRLHGKASPEWDSLVRLDPRFVDAYLKFAGVPQRRNHLDDKTRAFIALAADACATQLYAPGVARHIERALSFGATREELIEVLELVSTIGIHTSNVGVPVLLEVLEEEGLRKGAPPLDERRQKLKAEFETNRGYWHPTWEGLLELDPDLFEAYVEFSSVPWRTGVLSPKIKEFMYCAFDASATHLYVPGLKLHIRNALRYGATAEELMELLEIVSVTGIHGAELGAPLLEAALKRSGAAAGEPHA,soluble
4,MSLLLIKNGKIITMTGKNYDKGCVLIDNGKIVDVNENIKENKYMKVIDASNFTVIPGIIDAHCHIGIDEQDIGKVGLDINEVSNPVTPNLRAIDAINPMDSAFNDAVMGGITGVMTGPGSANVIGGQFVFMKTYGKCIDDMVVLEPAAVKAALGENPKRVYGGKGKAPVTRMAIAALLREALTEAENYKNKKEALKAKGERIEKNLKLEALIPVIEGNIPLKVHAHRADDILTAIRIAKEFKINITLDHCTEGHLIPEKVKESGYPVLVGPSLTSRSKSEVSNKTFKTPGVLANMGIKTAIITDHPVIPIQYLPICAGLSCREGMKVEDALYAITLNAAEICGVASRLGSIEKGKDADIAIFDGNPMEVFTKTIYTIIDGNIVYKHECYEGHHHHHH,soluble
5,MPQYKGSREVISIHVGQAGVQIGNACWELFCLEHGIQPDGYHVEDDTYDEETETINTFFAETAGGKHVPRCLFVDLEPTVVDEVRTGTYRSLFHPEQLLSGKEDAANCYARGRYTIGREMIDVVMDRVKRLAENCNGLQGFVIFHSFGGGTGSGFLSLLMERLSTEYGKKPKLEFAIYPAPQVSTSMVEPYNSILMTHTTLEHSDCTFMVDNEAIYDICRRNLDLARPTYTNLNRLVAQIISSITASLRFEGALNVDLTEFQTNLVPYPRIHFPLVTYAPLVSAERASHEQNTVSDMTHACFEPGYQMVKCDPRRGKYMAVCLLYRGDVVPKDINSAIAAVKTKRTVQFVEWCPTGFKVGINYQPPTVVPGGDLGKQTRSVCMISNTTAIAEAWARLDHKFDLMYAKRAFVHWYVGEGMEEGEFSEAREDMAALEKDYEEIGEDELPDDIDDQSYRGRSSGSRY,not soluble
6,MGSDKIHHHHHHMAEKQYDFTHVPKRQGNSIKWGVLKEKELPMWIAEMDFKIAPEIMASMEEKLKVAAFGYESVPAEYYKAVADWEEIEHRARPKEDWCVFASGVVPAISAMVRQFTSPGDQILVQEPVYNMFYSVIEGNGRRVISSDLIYENSKYSVNWADLEEKLATPSVRMMVFCNPHNPIGYAWSEEEVKRIAELCAKHQVLLISDEIHGDLVLTDEDITPAFTVDWDAKNWVVSLISPSKTFNLAALHAACAIIPNPDLRARAEESFFLAGIGEPNLLAIPAAIAAYEEGHDWLRELKQVLRDNFAYAREFLAKEVPEVKVLDSNASYLAWVDISALGMNAEDFCKYLREKTGLIISAGNGYRGNGHEFVRINLACPKELVIDGMQRLKQGVLNLNN,not soluble
7,MGSCMKWDYGEMEDFSVSASGLFITNEGNFQYSNATLSYYDPATCEVENEVFYRANGFKLGDVAQSMVIRDGIGWIVVNNSHVIFAIDINTFKEVGRITGFTSPRYIHFLSDEKAYVTQIWDYRIFIINPKTYEITGYIECPDMDMESGSTEQMVQYGKYVYVNCWSYQNRILKIDTETDKVVDELTIGIQPTSLVMDKYNKMWTITDGGYEGSPYGYEAPSLYRIDAETFTVEKQFKFKLGDWPSEVQLNGTRDTLYWINNDIWRMPVEADRVPVRPFLEFRDTKYYGLTVNPNNGEVYVADAIDYQQQGIVYRYSPQGKLIDEFYVGLEHHHHHH,soluble
8,MGSDKIHHHHHHMKQIKIGTCVPGPVAEEWLKGFVGKGFETFSLNFHMSLEGTDLDKLALSTEQILAGTDSKITTLGYYCNPIQYPEHRKTLEKVICTAEKFGATHVSTFAGAWEGKPVESAYEEFGKVFRELAELAEEKGVKLGIENCLMDGTWEHATCNIGFNPKAWEVMFEEVKNDNFGLEWEPTHQMVQLIDPVTELRKWCKKIVHVHGKDATIDWDAVRHGGISGAVPFVWHRMPGFGDTNWRDIISILRSNGYEDDICIEGYHDPVYRGELEMTGQLHALNYLKWCRGGEFTPTPWEK,not soluble
9,MAQTDKPTCIPPELPKMLKEFAKAAIRVQPQDLIQWAADYFEALSRGETPPVRERSERVALCNRAELTPELLKILHSQVAGRLIIRAEELAQMWKVVNLPTDLFNSVMNVGRFTEEIEWLKFLALACSALGVTITKTLKIVCEVLSCDHNGGSPRIPFSTFQFLYTYIAKVDGEISASHVSRMLNYMEQEVIGPDGIITVNDFTQNPRVQLE,soluble
10,MSQFDLTPPSPAQRDALIAGLSDEEQRVLLHHGTEAPFCGVFLDNKLDGVYTCRLCGLPLFRSNAKFDSGTGWPSFFAPYDPAHVREIRDTSYGMVRTEIVCARCDSHLGHVFPDGPPPTGERHSLNSVSLAFTEDGQPLPNPLQRAGAETQPA,soluble
11,MRSMTLEQLRTASETGGVSSVTLKGQGGAFLVQINTRSGVAAILTKARNSEPRRFGNPAAALNVLREVGITIGQFDASEWNPDEREPVARSSDNRAKALHKAHEAAAYNEWLAAEIQEAIDDPRPGIPHDEVMARMDARIVRHKAAGAKRA,not soluble
12,AHHHHHHGSEELIREVILKNLTLNSAGGIGLEELDDGATIPLGDKHLVFTIDGHTVKPIFFPGGDIGRLAVSGTVNDLAVMGAQPLAIASSLIIEEGFEVSELEKILKSMDETAKEVPVPIVTGDTKVVEDRIGIFVITAGVGVAERPISDAGAKVGDVVLVSGTIGDHGIALMSHREGISFETELKSDVAPIWDVVKAVADAIGWENIHAMKDPTRGGLSNALNEMARKANVGILVREEAIPIRPEVKAASEMLGISPYEVANEGKVVMIVAKEYAEEALEAMKKTEKGRDAAIIGEVIGEYRGKVILETGIGGRRFLEPPLGDPVPRVC,soluble
13,MRKTKIVCTIGPASESIEKLEQLIEAGMNVARLNFSHGSHEEHGARIKNIREASKKTGKTVGILLDTKGPEIRTHDFVDGQAELVTGAEVVLSTEQVLGTAEKFSVSYAGLYDDVDPGSRILIDDGLIELEVIEKADGNIRTKVLNSGTVKNKKGVNVPNVSIKLPGITEKDVKDIIFGIEQKVDFIAASFVRKAADVLEIRELLEEHNAQYIQIVPKIENQEGIDNIDSILEVSDGLMVARGDMGVEIPPEEVPLVQKRLIKKCNVLGKPVITATQMLDSMQRNPRPTRAEASDVANAIFDGTDAIMLSGETAAGQYPVEAVTMMANIAVRVEKSLQYEDMFKKRIKEFTPTITDAISQSVAHTALALDVAAIVAPTESGYTAKMISKYRPKSPIVAVTSDEQVGRRLALVWGVQAFMAEKRAASTDEMLDTAIQTGMDAGLIGLGDTVVITAGVPVAETGTTNLMKIHVVGEEVAKGQGIGRKAAKGKVVVAKTAAEAVANVNEGDILVTTSTDKDMIPAIEKAAALVVEEGGLTSHAAVVGVSIGIPVIVGVNGVTATLKNGQEVTVDAARGIVYNGHAEVL,soluble
14,MGSDKIHHHHHHMADQTESVSGVNVDQAELQKFAELAHKWWDKNSEFKPLHEINPLRLNYIDEHAGLAGKRVLDVGCGGGILSESMSERGAEVTGIDLGEKALKVAKLHQYESSAKVDYRLISVEELAQESPESFDIVTCMEMLEHVPDPAAIVRACARLTKPGGKVFFSTINRNPKAYLFAVLGAEYVLNLLPRGTHEYEKFIKPSELAGWARAAGLDVIASKGMGYNPLTKRYKLNNDVSVNYILQTVK,not soluble
15,MRNLIISAALVAASLFGMSAQAAEPIESGKQYVELTSAVPVAVPGKIEVIELFWYGCPHCYAFEPTINPWVEKLPSDVNFVRIPAMFGGPWDAHGQLFITLDTMGVEHKVHAAVFEAIQKGGKRLTDKNDMADFVATQGVNKDDFLKTFDSFAVKGKIAQYKELAKKYEVTGVPTMIVNGKYRFDLGSAGGPEKTLQVADQLIDKERAAAKAAK,not soluble
16,RKLATAAKVSAMGSLNDLFESVSDRLRDSGRLIVVDEAENLPLRALEIVRRLHDETGCGLVLSGMPRLVANLRGKHGELVQLYSRVSVALNLGESLPDDELFEIAKAALPDAVKHLLPDSVQALITVIGFNETLELVRLMGGTTYPLRQGYTKNSQSRVAYLEEIIGSEAAGRLVEAMAPCNLFIPRCETALYELRNRKIRSQFDRQTAGGTPAYEAVNDLALAHRLSDRHVWRILKQADKEAEQENLF,not soluble
17,MSLKKRRTIGFLVNDIDVSYSNLVYLMTKKAAEKYDCNLIVYEGRSFNNPSMADSQHQISYSFVDNTRLDGIIITSATIACFISDEEFVEFCKRYEGIPLVSLGIVVPHATSILVDNKPGMKSQVEHLIKDHGFKKIVYISGPPTNTDSVERLEAYCEALRENDIEVDDGLIFYGDFMAQSGYDIIKEIIKNGIEYDAVVCANDEMAFGAIKGIRDLKDAYNLDLTQKGVICGFDDSITSRLVKPSLTTVRQPIEEMCFYAVEAILKKIEGEKVEDVVKLPSVLVKRESCGEGHHHHHH,soluble
18,MSLAHAQMEMPPRSLGAVIEQAEAQEAPILLEVYAPWCPYCQRMQENVYADAEVRSYLDRRFTYARLNRDTTGGTHRFNGRTLSSKELGMALGARGVPTTVFMKPDGTPIAKQPGYIKRPVFLQMLRYFGSGAYEEQSFEAFRARASEGHHHHHH,not soluble
19,MGSDKIHHHHHHMYNEYQPSLLLAPYIDKYWEFKGNPDYGMKINILPDGCTDFIFTLGEVADIAEQESLIMQPYRSYFVGPMSRYSTLITYAKSIHMFGIRFLPCGLFRFMQLPLEELGNQRISTFESGGIFNDSLAERLCEQPYIQDKIRLIESFLTQALCTNNKIEKQISYAVDCINLSKGQLPIRSLVENVCLCQRHFERKFKHQTGYSPKEYSRIIKFKNAVDLLRSTSSNQLFSVAIEAGYYDTAHLSKEIKALSGNTPGSFLSLPVTEETTLTYLKL,not soluble
20,EETAKEVMTSRLDMVDLEINTPYSDVLKCIVENAYSRIPVYAESRDNIKGILYIKDLLPHLGKGDNFRWQTLVRPAYFVPETKMIDDLLRDFQANKIHIAIVVDEFGGTSGIVTMEDIIEEIVGEINDEYDD,soluble
21,MGSDKIHHHHHHMQFPSIEDLRARNTMKWTRYGQGVLPLWVAESDFSTCPAVLQAITDAVQREAFGYQPDGSLLSQATAEFYADRYGYQARPEWIFPIPDVVRGLYIAIDHFTPAQSKVIVPTPAYPPFFHLLSATQREGIFIDATGGINLHDVEKGFQAGARSILLCNPYNPLGMVFAPEWLNELCDLAHRYDARVLVDEIHAPLVFDGQHTVAAGVSDTAASVCITITAPSKAWNIAGLKCAQIIFSNPSDAEHWQQLSPVIKDGASTLGLIAAEAAYRYGTDFLNQEVAYLKNNHDFLLHEIPKRIPGAKITPMQATYLMWIDFRDTTIEGSPSEFFIEKAKVAMNDGAWFGEDGTGFCRLNFATSREVLEEAIDRMAKAVSHHT,not soluble
